FireProtDB (doi:10.1021/bi201253b)

B1: H116S, A5H7H0 (parent)
chain: MQLQNFLSIVLLVVSGAIAGTVMDHDKIAKLPASGSPLETKFQPQLHIGNGCHSYPAVDAQGNWSGGLKPTGAPSAACKDTSKAQTYVRSATFQGKTALVYAWYMPKDEISTGIGHRHDWEGAVVFLNSDTQQIDGVAASAHGKWRKYPNPGGANIDDTHVKLQYSAEPVINSHALDLTDKGGDLPTLASWEGMGADARAAINERSHWGDANPPIADSLIGSSLSGAWMW

Variants of: B1
Conditions: Moniliophthora perniciosa; pH 7.2; Thermal; CD; sodium phosphate buffer 4mM; EDTA CaCl2 with ZnCl2 62.5 micro M 120 micro M 120 micro M; structure 3ST1; whole UniProt chain shown

## MQLQNFLSIVLLVVSGAIAGTVMDHDKIAKLPASGSPLETKFQPQLHIGNGCHSYPAVDAQGNWSGGLKPTGAPSAACKDTSKAQTYVRSATFQGKTALVYAWYMPKDEISTGIGSRHDWEGAVVFLNSDTQQIDGVAASAHGKWRKYPNPGGANIDDTHVKLQYSAEPVINSHALDLTDKGGDLPTLASWEGMGADARAAINERSHWGDANPPIADSLIGSSLSGAWMW [H116S]
  Tm: 39.9 °C
  change of melting temperature, mutant - wild type (higher = more stable): -0.07 °C

## MQLQNFLSIVLLVVSGAIAGTVMDHDKIAKLPASGSPLETKFQPQLHIGNGCHSYPAVDAQGNWSGGLKPTGAPSAACKDTSKAQTYVRSATFQGKTALVYAWYMPKDEISTGIGARHDWEGAVVFLNSDTQQIDGVAASAHGKWRKYPNPGGANIDDTHVKLQYSAEPVINSHALDLTDKGGDLPTLASWEGMGADARAAINERSHWGDANPPIADSLIGSSLSGAWMW [H116A]
  Tm: 40.4 °C
  change of melting temperature, mutant - wild type (higher = more stable): 0.4 °C

## MQLQNFLSIVLLVVSGAIAGTVMDHDKIAKLPASGSPLETKFQPQLHIGNGCHSYPAVDAQGNWSGGLKPTGAPSAACKDTSKAQTYVRSATFQGKTALVYAWYMPKDEISTGIGHRHKWEGAVVFLNSDTQQIDGVAASAHGKWRKYPNPGGANIDDTHVKLQYSAEPVINSHALDLTDKGGDLPTLASWEGMGADARAAINERSHWGDANPPIADSLIGSSLSGAWMW [D119K]
  Tm: 40.2 °C
  change of melting temperature, mutant - wild type (higher = more stable): 0.25 °C

## MQLQNFLSIVLLVVSGAIAGTVMDHDKIAKLPASGSPLETKFQPQLHIGNGCHSYPAVDAQGNWSGGLKPTGAPSAACKDTSKAQTYVRSATFQGKTALVYAWYMPKDEISTGIGHRHDWEGAVVFLNSDTQQIDGVAASAHGKWRKYPNPGGANIDDTHVKLQYSAEPRINSHALDLTDKGGDLPTLASWEGMGADARAAINERSHWGDANPPIADSLIGSSLSGAWMW [V170R]
  Tm: 37.7 °C
  change of melting temperature, mutant - wild type (higher = more stable): -2.26 °C

## MQLQNFLSIVLLVVSGAIAGTVMDHDKIAKLPASGSPLETKFQPQLHIGNGCHSYPAVDAQGNWSGGLKPTGAPSAACKDTSKAQTYVRSATFQGKTALVYAWYMPKDEISTGIGHRHDWEGAVVFLNSDTQQIDGVAASAHGKWRKYPNPGGANIDDTHVKLQYSAEPVINSHALDLTDKGGDLPTLASWEGMGADARAAINERSHWGSANPPIADSLIGSSLSGAWMW [D210S]
  Tm: 38.7 °C
  change of melting temperature, mutant - wild type (higher = more stable): -1.25 °C
